Patent US20170266254A1 (AILERON THERAPEUTICS, published 2017)
Bridges are numbered along the chain shown (N, C = ends). [ ]: non-standard residue; d: D form. R8 = C=CCCCCCC[C@@](C)(N)C(=O)O; S5 = C=CCCC[C@](C)(N)C(=O)O

T1: C-terminally 6x Histidine-tagged Beta-Catenin (aa 134-668, 59 KD) (UniProt P35222 134-668)
T1 construct: range 134-668; Armadillo repeat region
T1 sequence: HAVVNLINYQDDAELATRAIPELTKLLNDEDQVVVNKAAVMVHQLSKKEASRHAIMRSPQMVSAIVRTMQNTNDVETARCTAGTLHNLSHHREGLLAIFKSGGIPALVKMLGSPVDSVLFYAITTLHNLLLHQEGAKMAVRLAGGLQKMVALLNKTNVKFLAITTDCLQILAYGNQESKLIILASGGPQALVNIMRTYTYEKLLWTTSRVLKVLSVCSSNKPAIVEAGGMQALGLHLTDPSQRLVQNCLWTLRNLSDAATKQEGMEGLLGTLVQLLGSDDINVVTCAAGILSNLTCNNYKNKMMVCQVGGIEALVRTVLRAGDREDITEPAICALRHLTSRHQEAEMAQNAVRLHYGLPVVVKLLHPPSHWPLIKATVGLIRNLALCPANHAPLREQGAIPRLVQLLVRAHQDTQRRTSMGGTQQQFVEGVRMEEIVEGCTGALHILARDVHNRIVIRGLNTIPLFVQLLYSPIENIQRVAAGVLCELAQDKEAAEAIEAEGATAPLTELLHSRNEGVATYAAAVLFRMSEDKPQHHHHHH

B1: SP8 (peptide)
peptide: Ac-RDLANVKS[S5]LVN[S5]S-NH2
modifications: staple 9-13
SMILES: CC(=O)N[C@@H](CCCNC(=N)N)C(=O)N[C@@H](CC(=O)O)C(=O)N[C@@H](CC(C)C)C(=O)N[C@@H](C)C(=O)N[C@@H](CC(N)=O)C(=O)N[C@H](C(=O)N[C@@H](CCCCN)C(=O)N[C@@H](CO)C(=O)N[C@@]1(C)CCCC=CCCC[C@@](C)(C(=O)N[C@@H](CO)C(N)=O)NC(=O)[C@H](CC(N)=O)NC(=O)[C@H](C(C)C)NC(=O)[C@H](CC(C)C)NC1=O)C(C)C
B2: SP56 (peptide)
peptide: Ac-RDLA[S5]VVS[S5]LVNES-NH2
modifications: staple 5-9
SMILES: CC(=O)N[C@@H](CCCNC(=N)N)C(=O)N[C@@H](CC(=O)O)C(=O)N[C@@H](CC(C)C)C(=O)N[C@@H](C)C(=O)N[C@@]1(C)CCCC=CCCC[C@@](C)(C(=O)N[C@@H](CC(C)C)C(=O)N[C@H](C(=O)N[C@@H](CC(N)=O)C(=O)N[C@@H](CCC(=O)O)C(=O)N[C@@H](CO)C(N)=O)C(C)C)NC(=O)[C@H](CO)NC(=O)[C@H](C(C)C)NC(=O)[C@H](C(C)C)NC1=O
notes: also called Ac-RDLA$VVS$LVNES-NH2
B3: SP55 (peptide)
peptide: Ac-SA[S5]RNL[S5]DVKSSLV-NH2
modifications: staple 3-7
SMILES: CC(=O)N[C@@H](CO)C(=O)N[C@@H](C)C(=O)N[C@@]1(C)CCCC=CCCC[C@@](C)(C(=O)N[C@@H](CC(=O)O)C(=O)N[C@H](C(=O)N[C@@H](CCCCN)C(=O)N[C@@H](CO)C(=O)N[C@@H](CO)C(=O)N[C@@H](CC(C)C)C(=O)N[C@H](C(N)=O)C(C)C)C(C)C)NC(=O)[C@H](CC(C)C)NC(=O)[C@H](CC(N)=O)NC(=O)[C@H](CCCNC(=N)N)NC1=O
notes: also called Ac-SA$RNL$DVKSSLV-NH2
B4: SP6 (peptide)
peptide: Ac-RDLA[S5]VKS[S5]LVNQS-NH2
modifications: staple 5-9
SMILES: CC(=O)N[C@@H](CCCNC(=N)N)C(=O)N[C@@H](CC(=O)O)C(=O)N[C@@H](CC(C)C)C(=O)N[C@@H](C)C(=O)N[C@@]1(C)CCCC=CCCC[C@@](C)(C(=O)N[C@@H](CC(C)C)C(=O)N[C@H](C(=O)N[C@@H](CC(N)=O)C(=O)N[C@@H](CCC(N)=O)C(=O)N[C@@H](CO)C(N)=O)C(C)C)NC(=O)[C@H](CO)NC(=O)[C@H](CCCCN)NC(=O)[C@H](C(C)C)NC1=O
notes: also called Ac-RDLA$VKS$LVNQS-NH2
B5: SP51 (peptide)
peptide: LGANDELISFADEGAQEEKSS
chain: AARDLANVKSSLV
modifications: not fully specified; N-terminal acetyl; C-terminal amide; PEG4 = NH-(PEG)4-COOH (19 atoms) linker between the two peptide parts; $ = (S)-alpha-(2'-pentenyl)alanine at positions 11 and 15 of the first part and at positions 2 and 6 of the second part, each pair joined by an all-carbon crosslinker with one double bond
notes: The two peptide parts are joined by a non-peptide PEG4 spacer, not by a peptide bond
B6: SP5 (peptide)
peptide: Ac-RNLADVKS[S5]LVN[S5]S-NH2
modifications: staple 9-13
SMILES: CC(=O)N[C@@H](CCCNC(=N)N)C(=O)N[C@@H](CC(N)=O)C(=O)N[C@@H](CC(C)C)C(=O)N[C@@H](C)C(=O)N[C@@H](CC(=O)O)C(=O)N[C@H](C(=O)N[C@@H](CCCCN)C(=O)N[C@@H](CO)C(=O)N[C@@]1(C)CCCC=CCCC[C@@](C)(C(=O)N[C@@H](CO)C(N)=O)NC(=O)[C@H](CC(N)=O)NC(=O)[C@H](C(C)C)NC(=O)[C@H](CC(C)C)NC1=O)C(C)C
B7: SP54 (peptide)
peptide: Ac-SA[S5]RDL[S5]NVKSSLV-NH2
modifications: staple 3-7
SMILES: CC(=O)N[C@@H](CO)C(=O)N[C@@H](C)C(=O)N[C@@]1(C)CCCC=CCCC[C@@](C)(C(=O)N[C@@H](CC(N)=O)C(=O)N[C@H](C(=O)N[C@@H](CCCCN)C(=O)N[C@@H](CO)C(=O)N[C@@H](CO)C(=O)N[C@@H](CC(C)C)C(=O)N[C@H](C(N)=O)C(C)C)C(C)C)NC(=O)[C@H](CC(C)C)NC(=O)[C@H](CC(=O)O)NC(=O)[C@H](CCCNC(=N)N)NC1=O
notes: also called Ac-SA$RDL$NVKSSLV-NH2
B8: SP7 (peptide)
peptide: Ac-RDLA[R8]VKSSLV[S5]QS-NH2
modifications: staple 5-12
SMILES: CC(=O)N[C@@H](CCCNC(=N)N)C(=O)N[C@@H](CC(=O)O)C(=O)N[C@@H](CC(C)C)C(=O)N[C@@H](C)C(=O)N[C@]1(C)CCCCCCC=CCCC[C@@](C)(C(=O)N[C@@H](CCC(N)=O)C(=O)N[C@@H](CO)C(N)=O)NC(=O)[C@H](C(C)C)NC(=O)[C@H](CC(C)C)NC(=O)[C@H](CO)NC(=O)[C@H](CO)NC(=O)[C@H](CCCCN)NC(=O)[C@H](C(C)C)NC1=O
notes: also called Ac-RDLA$r8VKSSLV$QS-NH2
B9: SP43 (peptide)
peptide: Ac-SA[S5]RDL[S5]NVKSSLV-NH2
modifications: staple 3-7
SMILES: CC(=O)N[C@@H](CO)C(=O)N[C@@H](C)C(=O)N[C@@]1(C)CCCC=CCCC[C@@](C)(C(=O)N[C@@H](CC(N)=O)C(=O)N[C@H](C(=O)N[C@@H](CCCCN)C(=O)N[C@@H](CO)C(=O)N[C@@H](CO)C(=O)N[C@@H](CC(C)C)C(=O)N[C@H](C(N)=O)C(C)C)C(C)C)NC(=O)[C@H](CC(C)C)NC(=O)[C@H](CC(=O)O)NC(=O)[C@H](CCCNC(=N)N)NC1=O
notes: as for B7
B10: SP50 (peptide)
peptide: LGANDELISFADEGAQEEKSS
chain: AARDLANVKSSLV
modifications: not fully specified; N-terminal acetyl; C-terminal amide; PEG3 = NH-(PEG)3-COOH (16 atoms) linker between the two peptide parts; $ = (S)-alpha-(2'-pentenyl)alanine at positions 11 and 15 of the first part and at positions 2 and 6 of the second part, each pair joined by an all-carbon crosslinker with one double bond
notes: The two peptide parts are joined by a non-peptide PEG3 spacer, not by a peptide bond

biological target: T1, C-terminally 6x Histidine-tagged …; experiment: competitive fluorescence polarization, FAM-labelled linear probe as competitor, His-tagged beta-catenin 134-668
In short: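 FP competition in 25 mM Tris-HCl pH 7.5, 200 mM NaCl, 5 mM CHAPS, 2 mM DTT at room temperature. Competitor peptides at 40–0.7 μM 2× working range, constant DMSO. Probe (benchmark peptide with N-terminal FAM via β-Ala spacer) from 25 nM 10× stock. Read after 3 h in the dark, ex 485/em 528 nm.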

IC50, ≥ 100 µM:
B1, B2, B3, B4, B6, B7, B8, B9

IC50, 0.603 µM:
B5

IC50, 1.1 µM:
B10
